Reference: publication PMC10100567

Molecular target: high-affinity IgE receptor FcεRI on the surface of RBL-2H3 cells (rat (endogenous in RBL-2H3))
Assay: Ligand Tracer

In the case of “Cy5-labeled monoclonal mouse anti-DNP IgE (clone SPE-7) (antibody)”, the Kd is reported as 1.3 nM.
